Data as given in patent publication US20050176933A1.

Target: GST-HAb18GE (a fusion of the extracellular domain of hepatoma-associated antigen HAb18G with GST) (human) (UniProt P35613)
Test: indirect ELISA on coated GST-HAb18GE; positive control; mean ± S

Sequence of UniProt P35613 (P35613 138-325): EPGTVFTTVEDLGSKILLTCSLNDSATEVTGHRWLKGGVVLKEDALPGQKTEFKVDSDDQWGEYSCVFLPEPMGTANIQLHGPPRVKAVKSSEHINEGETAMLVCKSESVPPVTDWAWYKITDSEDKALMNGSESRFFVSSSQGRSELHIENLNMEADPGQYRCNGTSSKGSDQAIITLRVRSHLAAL

- A450 (Indirect ELISA): 1.02 A450
B1: murine anti-human hepatoma McAb HAb18 (antibody, mouse IgG1, V domains shown)
VH: EVKLEESGGGLVQPGGSMKLSCVASGFTFSDAWMDWVRQSPEKGLEWVAEIRSKANNHAPYYTESVKGRFTISRDDSKSIIYLQMNNLRAEDTGIYYCTRDSTATHWGQGTLVTVSS
VL: SIVMTQTPTFLVVSAGDRVTITCKASQSVINDVAWYQQKPGQSPKLLIFYASNRNTGVPDRFTGSGYGTDFTFTISTVQAEDLAVYFCQQDYSPPFTFGSGTKLEIK
modifications: HRP-labelled in the competitive ELISAs
